Assays:
Assay in all cases: biochemical
Type in all cases: biochemical
[1] = molecular target: 266 human kinases (Homo sapiens, UniProt Q9H4B4); settings: Plk3(h); 100 μM
Procedure, shortened: (§1)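 A filter-capture radiometric assay: phosphorylated cationic substrate binds an anionic membrane and is scintillation-counted, with values referenced to full-activity control.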

[2] = molecular target: 266 human kinases (Homo sapiens, UniProt P16234, V561D); settings: PDGFRα(V561D)(h); 100 μM
Procedure, shortened: as §1

[3] = molecular target: 266 human kinases (Homo sapiens, UniProt Q9HBH9); settings: Mnk2(h); 100 μM
Procedure, shortened: as §1

[4] = molecular target: 266 human kinases (Homo sapiens, UniProt Q15418); settings: Rsk1(h); 100 μM
Procedure, shortened: as §1

[5] = molecular target: 266 human kinases (Homo sapiens, UniProt Q86Z02); settings: HIPK1(h); 100 μM
Procedure, shortened: as §1

[6] = molecular target: T1, 266 human kinases (Homo sapiens, UniProt O00418); settings: eEF-2K(h); 100 μM
T1 sequence (O00418 whole entry, looked up): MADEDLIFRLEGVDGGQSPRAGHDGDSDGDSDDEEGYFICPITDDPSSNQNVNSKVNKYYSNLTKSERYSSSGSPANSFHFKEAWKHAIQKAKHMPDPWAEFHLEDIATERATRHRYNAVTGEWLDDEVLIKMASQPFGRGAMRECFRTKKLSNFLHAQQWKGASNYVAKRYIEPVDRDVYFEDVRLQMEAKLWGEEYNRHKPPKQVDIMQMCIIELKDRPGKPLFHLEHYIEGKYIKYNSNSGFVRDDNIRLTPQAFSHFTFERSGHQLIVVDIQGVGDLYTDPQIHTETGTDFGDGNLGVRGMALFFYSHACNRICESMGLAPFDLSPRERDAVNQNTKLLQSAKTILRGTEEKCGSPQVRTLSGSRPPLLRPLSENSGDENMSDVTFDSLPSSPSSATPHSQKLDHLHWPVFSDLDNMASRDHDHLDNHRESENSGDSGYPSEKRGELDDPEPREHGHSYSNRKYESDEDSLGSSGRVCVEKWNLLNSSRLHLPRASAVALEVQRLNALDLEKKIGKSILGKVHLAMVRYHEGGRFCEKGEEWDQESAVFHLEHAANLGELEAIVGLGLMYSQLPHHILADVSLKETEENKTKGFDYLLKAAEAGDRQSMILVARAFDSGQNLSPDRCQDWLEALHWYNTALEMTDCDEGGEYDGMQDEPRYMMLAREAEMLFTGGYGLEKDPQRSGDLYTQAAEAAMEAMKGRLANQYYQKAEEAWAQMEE
Procedure, shortened: as §1

[7] = molecular target: T2, 266 human kinases (Homo sapiens, UniProt P52333); settings: JAK3(h); 100 μM
T2 sequence (P52333 1-1124): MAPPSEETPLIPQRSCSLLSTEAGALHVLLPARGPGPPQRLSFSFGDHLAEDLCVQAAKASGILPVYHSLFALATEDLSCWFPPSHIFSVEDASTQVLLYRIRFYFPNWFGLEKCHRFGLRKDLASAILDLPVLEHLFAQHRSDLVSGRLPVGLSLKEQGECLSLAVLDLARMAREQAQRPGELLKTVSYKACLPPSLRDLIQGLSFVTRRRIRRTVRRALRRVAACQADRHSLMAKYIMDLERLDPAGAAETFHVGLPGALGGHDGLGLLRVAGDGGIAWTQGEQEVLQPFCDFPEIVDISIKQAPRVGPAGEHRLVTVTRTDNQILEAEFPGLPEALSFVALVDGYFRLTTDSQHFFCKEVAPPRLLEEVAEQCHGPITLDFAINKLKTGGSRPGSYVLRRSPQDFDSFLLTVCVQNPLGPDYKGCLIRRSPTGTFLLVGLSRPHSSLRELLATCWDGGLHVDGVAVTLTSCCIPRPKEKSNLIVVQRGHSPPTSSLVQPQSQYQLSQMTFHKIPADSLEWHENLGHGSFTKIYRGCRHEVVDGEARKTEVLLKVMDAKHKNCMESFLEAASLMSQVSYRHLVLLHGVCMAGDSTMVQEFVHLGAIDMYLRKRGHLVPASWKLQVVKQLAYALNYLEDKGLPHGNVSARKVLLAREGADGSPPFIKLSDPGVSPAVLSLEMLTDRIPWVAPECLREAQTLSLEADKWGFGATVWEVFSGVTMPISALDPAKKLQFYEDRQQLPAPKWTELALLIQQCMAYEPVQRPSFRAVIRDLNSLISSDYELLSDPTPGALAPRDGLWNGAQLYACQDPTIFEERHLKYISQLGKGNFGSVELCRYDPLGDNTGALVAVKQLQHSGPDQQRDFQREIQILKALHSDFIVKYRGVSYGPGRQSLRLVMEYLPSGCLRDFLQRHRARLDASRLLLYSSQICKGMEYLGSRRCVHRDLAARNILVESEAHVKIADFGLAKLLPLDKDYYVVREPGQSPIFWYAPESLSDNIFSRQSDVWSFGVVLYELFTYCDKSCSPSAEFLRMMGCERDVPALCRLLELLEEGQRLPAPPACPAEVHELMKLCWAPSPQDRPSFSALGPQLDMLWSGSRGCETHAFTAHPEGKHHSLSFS
Procedure, shortened: as §1

[8] = molecular target: 266 human kinases (Homo sapiens, UniProt P10721, V654A); settings: cKit(V654A)(h); 100 μM
Procedure, shortened: as §1

[9] = molecular target: 266 human kinases (Homo sapiens, UniProt P49760); settings: CLK2(h); 100 μM
Procedure, shortened: as §1

Chain of 266 human kinases (Homo sapiens, UniProt Q9H4B4) (Q9H4B4 whole entry): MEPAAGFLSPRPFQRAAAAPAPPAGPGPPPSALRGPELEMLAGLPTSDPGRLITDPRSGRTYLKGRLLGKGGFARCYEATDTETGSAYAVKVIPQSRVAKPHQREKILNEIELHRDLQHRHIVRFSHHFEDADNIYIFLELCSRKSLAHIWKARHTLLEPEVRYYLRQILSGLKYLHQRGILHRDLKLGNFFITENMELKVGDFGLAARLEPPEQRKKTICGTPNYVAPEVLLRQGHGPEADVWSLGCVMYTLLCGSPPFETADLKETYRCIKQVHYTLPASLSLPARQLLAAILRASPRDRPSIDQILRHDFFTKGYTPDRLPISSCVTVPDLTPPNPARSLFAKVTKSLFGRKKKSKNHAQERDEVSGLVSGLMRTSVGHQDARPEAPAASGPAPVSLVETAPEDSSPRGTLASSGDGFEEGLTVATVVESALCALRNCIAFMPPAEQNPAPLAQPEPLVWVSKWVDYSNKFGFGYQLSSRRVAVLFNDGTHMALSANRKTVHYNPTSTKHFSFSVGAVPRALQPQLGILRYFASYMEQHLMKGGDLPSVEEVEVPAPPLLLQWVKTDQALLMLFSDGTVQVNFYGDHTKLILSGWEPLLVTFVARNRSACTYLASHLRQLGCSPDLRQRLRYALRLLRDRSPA
Chain of 266 human kinases (Homo sapiens, UniProt P16234, V561D) (P16234 24-1089 V561D): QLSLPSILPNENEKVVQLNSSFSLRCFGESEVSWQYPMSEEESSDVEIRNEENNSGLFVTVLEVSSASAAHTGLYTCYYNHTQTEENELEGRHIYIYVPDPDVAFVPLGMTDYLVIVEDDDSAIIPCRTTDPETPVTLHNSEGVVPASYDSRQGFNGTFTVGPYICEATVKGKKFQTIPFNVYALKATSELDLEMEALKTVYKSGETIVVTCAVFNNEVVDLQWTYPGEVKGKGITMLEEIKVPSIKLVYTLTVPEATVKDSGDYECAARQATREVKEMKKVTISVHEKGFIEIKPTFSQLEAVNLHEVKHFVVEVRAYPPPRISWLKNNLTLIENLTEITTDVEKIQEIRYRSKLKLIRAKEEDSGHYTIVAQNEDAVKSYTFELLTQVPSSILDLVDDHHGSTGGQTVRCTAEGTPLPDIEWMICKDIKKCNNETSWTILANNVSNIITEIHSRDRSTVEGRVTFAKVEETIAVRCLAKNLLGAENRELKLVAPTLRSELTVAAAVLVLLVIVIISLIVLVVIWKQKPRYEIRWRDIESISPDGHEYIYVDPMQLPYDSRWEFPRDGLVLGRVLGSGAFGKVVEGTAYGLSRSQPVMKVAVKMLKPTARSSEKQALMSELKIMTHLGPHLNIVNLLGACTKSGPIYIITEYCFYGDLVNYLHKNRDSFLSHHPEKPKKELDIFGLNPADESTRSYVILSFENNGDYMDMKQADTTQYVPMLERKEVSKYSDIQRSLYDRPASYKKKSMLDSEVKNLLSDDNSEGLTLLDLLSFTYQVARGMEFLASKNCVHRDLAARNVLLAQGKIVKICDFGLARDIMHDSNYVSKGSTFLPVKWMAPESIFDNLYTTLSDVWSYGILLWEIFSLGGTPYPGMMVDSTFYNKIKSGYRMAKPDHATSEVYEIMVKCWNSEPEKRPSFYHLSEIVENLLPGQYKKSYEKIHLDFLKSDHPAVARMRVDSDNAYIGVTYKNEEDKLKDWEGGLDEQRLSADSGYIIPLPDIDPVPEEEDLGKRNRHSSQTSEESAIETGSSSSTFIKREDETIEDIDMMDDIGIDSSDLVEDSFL
Chain of 266 human kinases (Homo sapiens, UniProt P49760) (P49760 whole entry): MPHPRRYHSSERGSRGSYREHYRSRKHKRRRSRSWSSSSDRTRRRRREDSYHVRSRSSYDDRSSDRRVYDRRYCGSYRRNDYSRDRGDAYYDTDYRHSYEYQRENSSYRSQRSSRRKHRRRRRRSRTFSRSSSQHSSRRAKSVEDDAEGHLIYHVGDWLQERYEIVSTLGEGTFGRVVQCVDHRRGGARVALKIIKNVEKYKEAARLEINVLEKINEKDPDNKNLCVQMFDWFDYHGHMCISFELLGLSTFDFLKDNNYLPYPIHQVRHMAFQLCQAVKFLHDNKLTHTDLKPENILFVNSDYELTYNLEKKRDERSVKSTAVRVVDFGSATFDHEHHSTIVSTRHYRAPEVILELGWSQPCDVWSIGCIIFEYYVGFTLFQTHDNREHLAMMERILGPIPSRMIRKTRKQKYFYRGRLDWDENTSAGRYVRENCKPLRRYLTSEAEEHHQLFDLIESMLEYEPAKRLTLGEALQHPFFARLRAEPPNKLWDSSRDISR
Chain of 266 human kinases (Homo sapiens, UniProt Q86Z02) (Q86Z02 whole entry): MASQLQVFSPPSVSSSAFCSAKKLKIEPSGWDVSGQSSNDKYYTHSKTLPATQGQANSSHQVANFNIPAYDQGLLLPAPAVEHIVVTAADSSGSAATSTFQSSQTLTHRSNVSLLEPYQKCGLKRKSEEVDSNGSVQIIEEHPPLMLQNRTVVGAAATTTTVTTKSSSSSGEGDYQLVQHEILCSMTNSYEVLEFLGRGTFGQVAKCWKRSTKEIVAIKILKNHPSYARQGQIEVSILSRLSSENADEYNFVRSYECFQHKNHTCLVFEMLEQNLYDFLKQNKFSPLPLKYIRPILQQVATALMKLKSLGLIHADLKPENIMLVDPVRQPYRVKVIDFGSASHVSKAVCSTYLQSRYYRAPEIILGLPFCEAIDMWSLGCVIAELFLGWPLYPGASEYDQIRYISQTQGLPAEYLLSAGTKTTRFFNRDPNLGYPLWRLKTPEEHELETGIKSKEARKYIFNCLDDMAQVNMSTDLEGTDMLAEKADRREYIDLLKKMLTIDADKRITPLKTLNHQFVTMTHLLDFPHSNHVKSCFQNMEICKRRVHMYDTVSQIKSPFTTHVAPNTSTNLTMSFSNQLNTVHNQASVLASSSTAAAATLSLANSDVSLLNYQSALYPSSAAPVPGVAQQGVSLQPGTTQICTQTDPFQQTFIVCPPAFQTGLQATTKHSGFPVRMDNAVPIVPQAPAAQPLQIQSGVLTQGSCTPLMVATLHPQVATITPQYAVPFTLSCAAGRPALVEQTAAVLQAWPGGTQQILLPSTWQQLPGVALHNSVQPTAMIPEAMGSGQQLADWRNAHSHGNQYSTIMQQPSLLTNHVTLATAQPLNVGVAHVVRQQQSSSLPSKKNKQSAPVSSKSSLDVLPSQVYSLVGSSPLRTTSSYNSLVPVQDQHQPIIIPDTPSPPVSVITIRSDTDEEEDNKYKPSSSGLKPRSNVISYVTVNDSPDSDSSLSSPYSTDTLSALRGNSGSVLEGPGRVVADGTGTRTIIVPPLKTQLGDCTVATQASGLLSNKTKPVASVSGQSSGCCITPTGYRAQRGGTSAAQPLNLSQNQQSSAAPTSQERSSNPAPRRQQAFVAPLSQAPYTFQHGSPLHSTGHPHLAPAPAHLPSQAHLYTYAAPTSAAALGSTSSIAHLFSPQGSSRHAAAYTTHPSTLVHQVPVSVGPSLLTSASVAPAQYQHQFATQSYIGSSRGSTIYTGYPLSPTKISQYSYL
Chain of 266 human kinases (Homo sapiens, UniProt Q15418) (Q15418 whole entry): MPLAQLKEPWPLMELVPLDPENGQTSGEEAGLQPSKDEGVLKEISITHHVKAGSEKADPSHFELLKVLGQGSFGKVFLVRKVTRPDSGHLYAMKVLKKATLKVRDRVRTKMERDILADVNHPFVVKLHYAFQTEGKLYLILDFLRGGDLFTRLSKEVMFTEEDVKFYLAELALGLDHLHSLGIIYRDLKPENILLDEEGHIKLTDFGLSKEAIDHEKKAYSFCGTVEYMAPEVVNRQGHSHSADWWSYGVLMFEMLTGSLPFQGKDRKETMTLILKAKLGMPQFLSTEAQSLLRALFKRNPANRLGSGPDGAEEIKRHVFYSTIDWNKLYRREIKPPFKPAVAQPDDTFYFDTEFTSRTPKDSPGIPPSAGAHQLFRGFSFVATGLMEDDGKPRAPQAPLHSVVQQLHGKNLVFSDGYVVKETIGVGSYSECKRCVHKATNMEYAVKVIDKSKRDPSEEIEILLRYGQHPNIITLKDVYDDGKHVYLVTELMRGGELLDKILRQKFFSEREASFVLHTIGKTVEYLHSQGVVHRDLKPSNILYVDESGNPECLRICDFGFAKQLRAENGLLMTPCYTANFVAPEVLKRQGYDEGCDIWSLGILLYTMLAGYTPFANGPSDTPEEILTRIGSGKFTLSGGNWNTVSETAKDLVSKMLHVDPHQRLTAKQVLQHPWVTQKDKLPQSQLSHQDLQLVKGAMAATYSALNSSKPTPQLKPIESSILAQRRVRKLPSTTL
Chain of 266 human kinases (Homo sapiens, UniProt Q9HBH9) (Q9HBH9 whole entry): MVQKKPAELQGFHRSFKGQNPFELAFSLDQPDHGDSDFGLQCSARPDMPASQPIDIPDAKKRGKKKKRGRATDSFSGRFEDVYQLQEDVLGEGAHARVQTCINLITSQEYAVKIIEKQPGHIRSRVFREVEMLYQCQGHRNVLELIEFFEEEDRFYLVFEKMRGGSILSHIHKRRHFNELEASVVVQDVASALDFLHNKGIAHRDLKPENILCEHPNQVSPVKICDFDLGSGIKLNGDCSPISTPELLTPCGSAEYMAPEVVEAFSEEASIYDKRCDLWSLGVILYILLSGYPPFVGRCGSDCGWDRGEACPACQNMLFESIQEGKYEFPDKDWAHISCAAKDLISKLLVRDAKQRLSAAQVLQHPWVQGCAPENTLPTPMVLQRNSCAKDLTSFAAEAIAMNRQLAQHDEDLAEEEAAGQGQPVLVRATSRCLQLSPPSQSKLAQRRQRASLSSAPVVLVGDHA

Row | Sequence | % activity [1] [%] | % activity [2] [%] | % activity [3] [%] | % activity [4] [%] | % activity [5] [%] | % activity [6] [%] | % activity [7] [%] | % activity [8] [%] | % activity [9] [%]
1 | HRRIKAWLKKIKALARQLGVAA (mammal) [MMI-0500] | 122 | 146 | 6 | 34 | 47 | 43 | 95 | 223 | –
2 | YARAAARQARAKALNRQLGVA (mammal) [MMI-0200] | – | – | – | – | – | – | – | – | 97
